Molecular target: mouse DLX2 (Mus musculus, UniProt P40764 1-332)
Experiment: EMSA

Sequence of mouse DLX2 (P40764 whole entry): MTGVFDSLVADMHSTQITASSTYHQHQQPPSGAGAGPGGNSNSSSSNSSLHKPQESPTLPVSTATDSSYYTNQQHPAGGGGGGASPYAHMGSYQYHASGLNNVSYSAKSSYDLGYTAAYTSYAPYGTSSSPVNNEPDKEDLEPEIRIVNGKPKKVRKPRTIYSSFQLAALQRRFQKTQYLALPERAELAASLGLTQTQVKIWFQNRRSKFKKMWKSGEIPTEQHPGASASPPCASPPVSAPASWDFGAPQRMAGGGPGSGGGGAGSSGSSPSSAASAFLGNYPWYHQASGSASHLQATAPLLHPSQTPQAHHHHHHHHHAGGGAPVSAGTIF

B1: mR6ii (dsDNA)
DNA 1: GATCCCGCCCCAATAGGTACTAATGACTGCCTGGGTGTCTACACTCACCG
DNA 2: CGGTGAGTGTAGACACCCAGGCAGTCATTAGTACCTATTGGGGCGGGATC
binding result: no binding
